21 sequences from the DeepSol protein solubility set can be followed below.

The data set is described as follows: soluble on expression in E. coli; label from the status in PepcDB or PDB records.
With “MSCTGFWRKLASGEECGAAARLLGAVLAIPAALYGLVVRLRALAYARGLSTVRHLDRPVISVGNLTVGGTGKTPMVAYLARRLMARGKRVAVISRGYGGSLEGETRIVSDGRTIVLSAAEAGDEPVHLATSVPGLMTVIGTDRYTAGLLALEQLDPDVFILDDGYQHLRLHRDLNILLMDCNRPLGNGRTLPAGLLREPQTAVRRADLVVYTRCTGGKAPAVHGMIPSCRAGHALTGAALLPDGEVQPLAALRGLRGVACAGIAEPEGFFDALRREGLDIVAAIPFADHASYGEREVSTLREAAAGADYLITTGKDGVKLSAHLARLLPVYATVLEMRPLDPAPLEAALDKVLTHISSCKSLEHHHHHHTHISSCKSLEHHHHHHTHISSCKSLEHHHHHHTHISSCKSLEHHHHHHTHISSCKSLEHHHHHHTHISSCKSLEHHHHHHTHISSCKSLEHHHHHH”, the “soluble on expression in E. coli” value is reported as “not soluble”.
On to “MGSDKIHHHHHHMYKINIIRSDSVYKNILKAPINDRDSIFTKEILVPFKKKFEVQHMPIYNDDKQTMSAIQFLDAFQISPKDLRMSDQMSIQYLNNDFWSNCEKYLKVAIDQFSNYSISSQVSNYHFTVLLGDSQKPLMYLNKNRGGDGGIPGYIMIYLVPSTSTINSMKSLIAHEVNHNMRYQYIDWDGGSLIELIIAEGLAENYVESLYGKAHIGPWVTNTNWSRDNVKIKNTIYNHLHLKHIFESMPYLYGDDINKLQGRPIVGLSHAAGYACGYHLVKYFLQKTNIPIEVATTLPAQKIINEVTEFWHTHTL”, for which the “soluble on expression in E. coli” value was “not soluble”.
The result for “MGSDKIHHHHHHVESLLTAADLHIHTTASDGTASPEAVLSYVATETDLRVIAITDHDTLRGALYARERASHYGIDVIVGCEISTRSGHLLALFIEQPVPAGLSVTETVARIHDQGGMAFAAHPFGMLVPSIGRRHLLGPERTDVDWMQLDGIEVFNASLWNPMNNERAARCAQRWGLTHIGGSDAHNLTMIGAGRTLFAGTGAADLRRALQRRATLVHGRYWGWRGVAGVVRERVWRQFGRPVESVS” reads “not soluble”; that for “NAVNWGMREYKIYPYELLLVTTRGRNRLPKDVDRTRLERHLSQEEFYQVFGMTISEFDRLALWKRNELKKQARLF”, “soluble”.
As to “MKRIARLLLSCICLALLSGCLYPQERLKQNQIPYKDQVAAVQSAVDEYRKATGGLLPIKTRDMNTPMYLKYPVDFQKLVPRYMQEPPGNAYESGGVFQYMIIDAETNPTVKLLDLRLAERIRDLKLRLSMYTDKHKYPPFQDVVAPGVFTLDYKKLGYKEPPYVVSPFSGNNLPFVIDGNGEIYIDYRSDLYAALKKYPHHYKPGDDIRPILTDHSLFVPAYSLPYTIDAKTNEPIFFTK”, the “soluble on expression in E. coli” value is on record as “not soluble”.
With “SMQAARLAKALRELGQTGWYWGSMTVNEAKEKLKEAPEGTFLIRDSSHSDYLLTISVKTSAGPTNLRIEYQDGKFRLDSIICVKSKLKQFDSVVHLIDYYVQMCKDKRTGPEAPRNGTVHLYLTKPLYTSAPSLQHLCRLTINKCTGAIWGLPLPTRLKDYLEEYKFQV”, the “soluble on expression in E. coli” value was “soluble”.
Turning to “MSLNEITLNVLYNLPGFTKFHQPLADEFMKKNPDVKINFLAPAAGYNEGQQQVLRSAVTGNLPDVYFSGYNLTAELVHTLAPRNQITDLGPFIQAEGGQAFLDKNYSPKMAALGQIDGKQYGLPVNASSPIIYINSDLVTKAGGDPDKMPTTFPELIALAKKIKALDPKFAGMSYDINGWPDDWLWQALVVEQGGKLVDDKTKTVAFDNEIGLNALKMTRQFVTEGGQNLLDWDQSRQQFGAGLTGFIFSTPAHVQTIQGLVGDRFKLKTATFPLDNKEKGGVPTGGNSAVILTQEKAKQDAAWKYLKWITGPEAQNTIVRITGYLPTNKLATGPDFLAPYYVENPNVKTASLQADRSLPWAGYPGGDSVRIWRTQRDIIGTVMRGEVTPEAGLKQIVEQTNALLKEGHHHHHH”, the “soluble on expression in E. coli” value is on record as “soluble”.
The value for “MGHHHHHHSHMGQFYEAESCLVEAGRLPAGQRRFAHFPGLASELLLTGLPLELIDGSTLSMPVRWVTGLLKELHVRLERRSRLVVLSTVGVPGTGKSTLLNTMFGLRFATGKSCGPRGAFMQLITVAEGFSQDLGCDHILVIDSGGLIGGALTSAGDRFELEASLATLLMGLSNVTVISLAETKDIPAAILHAFLRLEKTGHMPNYQFVYQNLHDVSVPGPRPRDKRQLLDPPGDLSRAAAQMEKQGDGFRALAGLAFCDPEKQHIWHIPGLWHGAPPMAAVSLAYSEAIFELKRCLLENIRNGLSNQNKNIQQLIELVRRL” was “not soluble”.
In the case of “MLTQQQIDHIYDSLGCPLHFLWSYIGTAHGLSHDQADPDSFEERKKDFFFIVGKLLDDGLLKLGNRKTELIMEGNIEELVEMFRKSLPASDEEIDQEVGGLWFFTDCPFVAAWVYKGAGENGEDEYDWC”, the “soluble on expression in E. coli” value was “not soluble”.
“MHTRAEKLEAFGRLLDVLDTLREQCPWDRKQTNESLRTNTIEEVYELSEALLGECPDDIRKELGDVLLHVAFYAKIGEEKGQFDIASVCHALCDKLIYRHPHIYGNVQVENAAEVVRNWEQLKLREKDGNKSVLSGVPKSLPALVKSYRMQEKAAGVGFDWEQREQVWPKVEEELNEVRGAIVSEDPDAMEAEFGDLLFAVVNAARLYGINPDNALERTNRKFDSRFSYVEQRAKQQGKALRDMTLSEMDALWNEAKQKGL”: the “soluble on expression in E. coli” value was “not soluble”.
Turning to “RIVCQFSCGAASAVATKLALADYSATHDVQILNAYLVNEHADSLRFLADCEAWFEQPVTVLRDEKYGADIIEVFRRERFIKKQYGASCTQLLKRRLLDIWKLPGDVMVFGYTAEEADRLEDFRERNPDRPVIAPLIDRGLGKEDCKAMIQRAGIELPVMYRMGYDNANCI”, the “soluble on expression in E. coli” value was “not soluble”.
Regarding “MSNRNLRSSTNSDLAEGQHQTPSSDSSGHGEDQPQASPGPNKKSHTPKKNISKGAVLHEKPMTVMVLTATEPFNYKEGKENMFHATVATESQYYRVKVFNMDLKEKFTENKFITISKYFNSSGILEINETATVSEAAPNQMFEVPKNIIRSAKETLKISKIKELDSGTLIYGVFAVEKKKVNDKSITFKIKDNEDNIKVVWDKEQHNINYEKGDKLQLFSFHLRKGNGKPILHSGNHSFIKGEKLLKESFEGDGYHKGPKQVVALKATKLFTYDSIKSKKMFHATVATDTEFFRVMVFEENLEKKFIPGNTIALSDYFGMYGSLAIHEYSSVSEVKSQNKEDSSSSDERPIEHLKICDLHLQTKERLVDGEFKVYRKSSGNNCICYGIWDDTGAMKVVVSGQLTSVNCEIGNTIRLVCFELTSNADEWFLRATRYSYMEVIMPEK”, the “soluble on expression in E. coli” value is recorded as “soluble”.
The result for “MQHHKVAIIGAGAAGIGMAITLKDFGITDVIILEKGTVGHSFKHWPKSTRTITPSFTSNGFGMPDMNAISMDTSPAFTFNEEHISGETYAEYLQVVANHYELNIFENTVVTNISADDAYYTIATTTETYHADYIFVATGDYNFPKKPFKYGIHYSEIEDFDNFNKGQYVVIGGNESGFDAAYQLAKNGSDIALYTSTTGLNDPDADPSVRLSPYTRQRLGNVIKQGARIEMNVHYTVKDIDFNNGQYHISFDSGQSVHTPHEPILATGFDATKNPIVQQLFVTTNQDIKLTTHDESTRYPNIFMIGATVENDNAKLCYIYKFRARFAVLAHLLTQREGLPAKQEVIENYQKNQMYLDDYSCCEVSCTCLEHHHHHH” reads “soluble”; that for “MGSDKIHHHHHHMMSWADKYRPKNIDDVILNSEIRKQITEWIESWKEGIPKKRSLILYGSQGTGKTTTAYAIAGTFGVPVVEMNASDQRNRDSMRGTALMASLYGDLFVESAKRPSKVILIDEADNMFERGGDTGGIYELSKIIKNSANPIVITMNDIFEFRKKNYASDVISASLTIEMKQYGRKLDKNYNEFRRNIKARLIFILKNEGYTLPDQVVDRIIDRNMPDIRSMINDLEASAVSGTNISDQSSRDVPEIVYYMVDKAFKRNYDDTLRSIYGSDIDDSYYVSWIDENLPLKTVDLQDLVSAYEVISYADHILWAMERRRHYELMAFPMEIAGGVAYYIENMKHEYVKYQSPSYISQMSKTKEKRHAMMSLALKIGLLIHMGAQRTSEDLWFYSLLYQHNEKLRTFFEEKLNLTQGEENVLTRSE”, “not soluble”; that for “MSVQNGFTAKIIRFVPHFVALRLSWTHNDLKAEGLEQFVEECLPAIRENNPQVKYFLQRSYTTCDPFVVGEYSWLRHRKKRVNWKSKEQVLSMIEEMSIGGDYREGYKRGVNRRLPRGQELWDTETMGHDVFHVTSKWKADIPEEDELPITAKTHPNFTYRKY”, “not soluble”.
In the case of “MAKRKKKEVFDWEDEDQEEIIWVSKSEIKRDAEDLKQLGEKIVNLTKANLAKIPLDESLLDAIELAQRLQKEARRRQLQYIGKLFRGIDVEPIREALDKIENKHNQQQAMLHKIEKVRDELVEKGDVALTDLLNDYPNGDRQQLRNLIRSAQKELEQNKPSKAYREIYQMLKVLMLED”, the “soluble on expression in E. coli” value is “not soluble”.
For “MKRIGLTGNIGCGKSTVAQMFRELGAYVLDADKLIHSFYRKGHPVYEEVVKTFGKGILDEEGNIDRKKLADIVFKDEEKLRKLEEITHRALYKEIEKITKNLSEDTLFILEASLLVEKGTYKNYDKLIVVYAPYEVCKERAIKRGMSEEDFERRWKKQMPIEEKVKYADYVIDNSGSIEETYKQVKKVYEELTRDPLEHHHHHH”, the “soluble on expression in E. coli” value is listed as “soluble”.
In the case of “MAHHHHHHMTKVWMPWAYQALLAYAHSGAAHGQANLWLKGQTSTPLQRICDPVPNLLISQSSQGGQRALWLLHRPESVLGLVVSPQWQGESGDHELCDASVVSKRKIVRVMKHLHSLPFRVAGSSPLRPPMVVHKNHLVGWRIDGKAAPLYAHTLDQLAKLKPTQFKTIEPKNAFICRTYYEWDNWKEVSMEPGWTWHHVDEEIANNILDGTLTFDGLRATATDTP”, the “soluble on expression in E. coli” value was “not soluble”.
Regarding “MGSDKIHHHHHHMDEETRRAVATADEALPTSDALPDAIDTGRVVFGFDGYLDRVREVVADRIDPESHERLATLESFGDRIDRSVAADSSLSFEWLQQGSRTGGHTSHLARAFGGWSFDPVMVGMYGDPVHDAFETEFGEYELHSLGEPGVTDAVEFDDGKLMLTEIGDTMSLDWAELDTAFGHDRLAEKLDGASLLGTGYWSETPDLPTVFDGLRTLWDGIDDPPETVLVDPGDVRKLDADRLRAGREAIGRLDEVTDVVVTSNRAETGVLADAYAGDAERSFADDAEAVFEALEPTWFVGHGVEQSVVVTAAGTDSVAVPSVSDPELTTSSGDHFNAGLGLARIADLSPAAAVVVGNAVAGYFVRTADQPSLADVRAFVDEYLEKF”, the “soluble on expression in E. coli” value is “not soluble”.
Take “MGSDKIHHHHHHMKIELENCQKSLTLKDFEEIESKLGYALPERLKEFYLQYNGGSTKQTASINKYQEVEIEDFFPFKYNKDFKNDPRYTAEGETLELRKAGAISDSILIFAMESTDEGRITIDLVNGKIYLYPIVGMQDVIFNFEEPRLVANSIDDFFDNLVVLDGHKAIPAIEEIEEGQTETAGVMPELSDCSASLTKEDIKNFEVELNVKIPAGMKNFYLKFNGGMPSPYCYQPQDEDLDRVEINAFFPIKERTNAFETIEVIAKGIWSRNLMPCNLLPFAMDSGGNYYALNLKNKKIYYYLTDEWDENASREYNFETNTRYIAQSFNYFINHFIEEEE”: the “soluble on expression in E. coli” value is “not soluble”.
As for “MVPQTETKAGAGFKAGVKDYRLTYYTPDYVVRDTDILAAFRMTPQPGVPPEECGAAVAAESSTGTWTTVWTDGLTSLDRYKGRCYDIEPVPGEDNQYIAYVAYPIDLFEEGSVTNMFTSIVGNVFGFKALRALRLEDLRIPPAYVKTFVGPPHGIQVERDKLNKYGRGLLGCTIKPKLGLSAKNYGRAVYECLRGGLDFTKDDENVNSQPFMRWRDRFLFVAEAIYKAQAETGEVKGHYLNATAGTCEEMMKRAVCAKELGVPIIMHDYLTGGFTANTSLAIYCRDNGLLLHIHRAMHAVIDRQRNHGIHFRVLAKALRMSGGDHLHSGTVVGKLEGEREVILGFVDLMRDDYVEKDRSRGIYFTQDWCSMPGVMPVASGGIHVWHMPALVEIFGDDACLQFGGGTLGHPWGNAPGAAANRVALEACTQARNEGRDLAREGGDVIRSACKWSPELAAACEVWKEIKFEFDTIDKL”, the “soluble on expression in E. coli” value was “soluble”.
